Results taken from patent publication US20230071609A1 (Genentech, published 2023).
Blank lines part the entries; values can stand above or below the binder they belong to.

Key:
[1] = target: T1, endogenous human APOL1 (wild-type immortalized podocytes; also JHH-1 cells, kidney and liver tissue) (human, UniProt O14791 28-398); experiment: flow cytometry, live WT and iAPOL1-G0 podocytes
T1 construct: whole, on cells; Cell or tissue and permeabilization are told under assay; also called podocyte APOL1; endogenous APOL1
T1 sequence (looked up): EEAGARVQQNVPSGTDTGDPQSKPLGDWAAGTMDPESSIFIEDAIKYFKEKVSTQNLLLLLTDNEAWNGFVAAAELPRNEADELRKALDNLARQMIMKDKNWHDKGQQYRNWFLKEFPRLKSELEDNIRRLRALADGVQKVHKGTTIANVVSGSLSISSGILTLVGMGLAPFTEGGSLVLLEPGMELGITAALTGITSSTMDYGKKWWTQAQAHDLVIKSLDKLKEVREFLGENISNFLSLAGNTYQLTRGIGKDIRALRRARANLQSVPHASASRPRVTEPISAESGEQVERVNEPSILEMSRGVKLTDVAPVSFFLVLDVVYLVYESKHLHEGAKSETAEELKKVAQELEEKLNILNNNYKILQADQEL
Procedure: (§1) Cells were harvested with 5 mM EDTA in PBS, washed once with growth media and twice with PBS. Approximately 0.5×10⁶/m1 of cells resuspended in PBS were incubated with anti-APOL1 antibodies for 1 h on ice. Following two PBS washes, 2 μg/ml of Alexa488 anti-mouse or anti-rabbit (Invitrogen A11029 and A21206, respectively) was used for 1 h on ice for detection. Cells were washed twice in PBS and resuspended in PBS with 1 μg/ml propidium iodide. Signals were read in a FACSCalibur3 (Becton Dickinson), with the exception of FIG. 8A and FIG. 14, which used a FACSCelesta, and data was analyzed using FlowJo v8.4.5. Mean fluorescence intensities were plotted in PRISM v7 after subtraction of secondary antibody alone background. For low pH experiments, cells were incubated with the antibodies in the presence of PBS pH 7.0 or PBS pH 5.5 for an hour on ice and detected with secondary antibodies at neutral pH.
More importantly, there were also differential APOL1 accessibilities between serum APOL1 and kidney disease-relevant podocytes (FIG. 18B). Some antibodies bound surface APOL1 in WT and iAPOL1 podocytes (FIG. 6A, 6B), but not circulating APOL1 (as judged by lack of trypanolytic blockade, FIG. 6C) and vice versa. […] Conversely, 3.3B6 and 4.17A5 were among the top trypanolytic blockers, but recognized the podocyte surface relatively weakly. […]

APOL1 peptide aa 364-385 = target: T2, APOL1 peptide aa 364-385 (human); experiment: overlapping ~20-mer peptides (SPR, western blot)
T2 peptide: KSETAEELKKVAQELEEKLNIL
Procedure: (§2) Following three TBST washes, anti-mouse (GE Healthcare NA931V, 1:3000) or anti-rabbit HRP (Jackson 711-036-152, 1:8000) was added as secondary antibody. After 1 h, membranes were washed and protein detected using ECL prime (Amersham RPN2232) exposed to MR film (Kodak). Anti-actin HRP-conjugated antibody (clone 13E5, Cell Signaling Technologies 5125S at 1:5000) or calnexin (Abcam Ab22595 at 1:1000) was used as a loading control. For peptide mapping, 2 μl of 1 mM peptides in DMSO were boiled in 5× sample buffer and loaded on 10% Tris-Glycine gel and run using MES buffer. Cell pellets of Sf9 lysates were lysed in native RIPA (NP-40) lysis buffer and run on 10% Tris-Glycine gels.
A 96×96 array-based SPR imaging system (Carterra USA) was used for epitope mapping of anti-ApoL1 monoclonal antibodies. Briefly, purified monoclonal hybridoma antibodies were diluted at 10 μg/ml in 10 mM sodium acetate buffer pH 4.5. Using amine coupling, antibodies were directly immobilized onto a SPR sensorprism CMD 200M chip (XanTec Bioanalytics, Germany) using a Continuous Flow Microspotter (Carterra, USA) to create an array of antibodies. After coupling, the antibodies were blocked with ethanolamine, and primed with running buffer (10 mM HEPES, pH 7.4, 150 mM NaCl, 3 mM EDTA, and 0.005% Tween 20). […]

[2] = target: T1, endogenous human APOL1 (wild-type …); experiment: summary of the Examples: podocyte flow cytometry
Procedure: as §1

[3] = target: T3, circulating APOL1 in normal human serum (human, UniProt O14791 28-398); experiment: summary of the Examples: trypanolysis blocking as proxy for serum APOL1
T3 construct: mature; Serum of healthy volunteers; lipoprotein-associated; also called serum APOL1; HDL APOL1
T3 sequence (looked up): T1 sequence (looked up)
Procedure: The trypanolysis assay used herein to text specificity of antibodies for serum APOL1 is as follows. Trypanosoma brucei brucei were obtained from ATCC and cultured in HMI-9 media containing IMDM (Genentech), heat-inactivated (56° C. for 30 min) FBS (Seradigm IXL9/06807/GEN), 1% serum plus (Sigma 14008C), HMI-9 (Genentech) and 1% hypoxanthine (Genentech). Trypanosome lysis was performed by treating 1×10⁵ Trypanosomes with serial dilutions of NHS or recombinant APOL1 for 16 h in a total of 100 μl. Live cell read out was done by the Alamar Blue assay as per the manufacturer's protocol, (Thermo Fisher, DAL1100). Briefly 10 μl of Alamar Blue was added to each well, incubated at 37° C. for 4 h. Red fluorescence, indicating live trypanosomes, was measured on a SpectraMax® fluorimeter powered by SoftMAX® PRO with excitation at 530 nm and emission 590 nm. For the antibody blocking assay, 1% normal human serum was preincubated with 1-10 μg/ml of anti-APOL1 antibody or media at room temperature for 20 minutes followed by addition of trypanosomes. After 16 h, the Alamar Blue assay was performed as above and background values for media only were subtracted and % blocking calculated by normalizing to no antibody control.
Trypanosoma brucei brucei were obtained under MTA from ATCC and cultured in HMI-9 media containing IMDM (Genentech), heat-inactivated (56° C. for 30 min) FBS (Seradigm IXL9/06807/GEN), 1% serum plus (Sigma 14008C), HMI-9 (Genentech) and 1% hypoxanthine (Genentech). Trypanosome lysis was performed by treating 1×10⁵ Trypanosomes with serial dilutions of NHS or recombinant APOL1 for 16 h in a total of 100 μl. Live cell read out was done by the Alamar Blue assay as per the manufacturer's protocol (30) (Thermo Fisher, DAL1100). Briefly 10 μl of Alamar Blue was added to each well, incubated at 37° C. for 4 h. Red fluorescence, indicating live trypanosomes, was measured on a SpectraMax fluorimeter powered by SoftMAX PRO with excitation at 530 nm and emission 590 nm. For the antibody blocking assay, 1% normal human serum was preincubated with 1-10 μg/ml of anti-APOL1 antibody or media at room temperature for 20 mins followed by addition of trypanosomes.

[4] = target: T4, APOL1 very C-terminal peptide aa 376-398 (human); experiment: overlapping ~20-mer peptides (SPR, western blot); antibody named in paragraph 192
T4 peptide: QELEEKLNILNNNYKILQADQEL
Procedure: as §2
A 96×96 array-based SPR imaging system (Carterra USA) was used for epitope mapping of anti-ApoL1 monoclonal antibodies. Briefly, purified monoclonal hybridoma antibodies were diluted at 10 μg/ml in 10 mM sodium acetate buffer pH 4.5. Using amine coupling, antibodies were directly immobilized onto a SPR sensorprism CMD 200M chip (XanTec Bioanalytics, Germany) using a Continuous Flow Microspotter (Carterra, USA) to create an array of antibodies. After coupling, the antibodies were blocked with ethanolamine, and primed with running buffer (10 mM HEPES, pH 7.4, 150 mM NaCl, 3 mM EDTA, and 0.005% Tween 20). Epitope mapping was performed by flowing 100 nM of different peptides of APOL1 across the immobilized anti-APOL1 antibodies on the biosensor chip at 25° C. in a running buffer of 10 mM HEPES, pH 7.4, 150 mM NaCl, 3 mM EDTA, and 0.005% Tween 20. After each flow through of the APOL1 peptide, the chip surface was regenerated using 10 mM glycine, pH 2.0.

[5] = target: T5, APOL1-G2 (deletion of N388 and Y389) (human, UniProt O14791 29-398); experiment: flow cytometry, live CHO cells expressing full length native iAPOL1-G2
T5 construct: expressed in CHO cells (flow cytometry, lysates), COS cells and podocytes; also called iAPOL1-G2; APOL-G2
T5 sequence: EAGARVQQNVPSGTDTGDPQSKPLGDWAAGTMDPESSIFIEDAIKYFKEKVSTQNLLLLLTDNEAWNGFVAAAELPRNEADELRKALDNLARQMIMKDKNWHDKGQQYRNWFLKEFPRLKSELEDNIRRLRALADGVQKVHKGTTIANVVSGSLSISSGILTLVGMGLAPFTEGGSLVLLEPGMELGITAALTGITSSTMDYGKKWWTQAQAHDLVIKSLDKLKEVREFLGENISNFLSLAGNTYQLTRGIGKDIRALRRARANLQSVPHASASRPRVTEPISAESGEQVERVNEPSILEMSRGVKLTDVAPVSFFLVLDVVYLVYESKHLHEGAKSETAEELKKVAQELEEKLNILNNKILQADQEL

B1: antibody 3.3B6 (antibody, V domains shown)
VH: QVQLQQSGAELARPGASVKLSCKASGYTFTSHWMQWLKQRPGQGLEWIGAIYPGDGDTKFTQKFKDKATLTADKSSTTAYMQLSSLASEDSAVYYCARENLYGYYFDYWGQGTTLTVSS
VL: QAVVTQESALTTSPGETVTLTCRSSTGAVTSGNFANWVQEKPDHLFTGLIGGADNRAPGVPARFSGSLIGDKAALIITGAQTEDEAIYFCALWYSDHWVFGGGTKLTVLG
notes: Mouse mAb, cloned as murine IgG2a LALAPG
binding result [1]: binds

binding result (APOL1 peptide aa 364-385): binds
B2: antibody 4.29C4 (antibody, V domains shown)
VH: QVQLQQPGAELVRPGASVKLSCKASGYSFANYWMNWVKQRPGQGLEWIGMIHPSDSESRLSQRFKDKATLTVDKSSSTAYMQLNSPTSEDSAVYYCARLDYWGQGTSVTVSS
VL: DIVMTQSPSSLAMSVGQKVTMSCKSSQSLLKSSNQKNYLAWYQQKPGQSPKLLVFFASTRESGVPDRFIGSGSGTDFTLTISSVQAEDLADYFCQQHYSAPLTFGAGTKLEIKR
notes: as for B1

binding result [3]: binds
binding result [4]: binds
binding result [5]: no binding (tested: 5 µg/ml)
B3: antibody 4.11A10 (antibody, V domains shown)
VH: EVQLQQSGPELVKTGASVKISCKASGYSFTGYFMHWVKQSHGKSLEWIGYISCYNGVSVYNQRFKGKATFTIDTSSSTAYMQFNSLTSEDSAVYYCARDVLRYPRYAVDYWGQGTSVTVSS
VL: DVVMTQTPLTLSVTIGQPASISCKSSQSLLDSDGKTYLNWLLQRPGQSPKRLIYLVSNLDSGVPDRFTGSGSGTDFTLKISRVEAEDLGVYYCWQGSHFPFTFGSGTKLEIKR
notes: as for B1
binding result [2]: binds

binding result [3]: binds
binding result [4]: binds
binding result [5]: no binding (tested: 5 µg/ml)
B4: antibody 4.11H11 (antibody, V domains shown)
VH: EVQVQQSGPELVKPGASMKISCKASGYSFIVYTMNWVKQSHGKNLEWIGLINPYNGGTIYNRKFKGKATLTVDKSSSTAYLELLSLTSEDSAVYYCARGALYRYEGAMDYWGQGTSVIVSS
VL: QIVLSQFPAILSASPGEKVTMTCRASSSVIYVHWYQQKPGSSPKPWIYATSNLASGVPARFSGSGSGTSHSLTISRLEAEDTATYYCQQWSSNPLTFGAGTKLEIKR
notes: as for B1
binding result [2]: binds
